Laboratory results taken from patent publication US20250043302A1, “MUTATED HYDROXYPHENYLPYRUVATE DIOXYGENASE POLYPEPTIDE, AND CODING GENE AND USE THEREOF” (BEIJING DABEINONG BIOTECHNOLOGY CO., LTD., priority 2021, published 2025).

Assays:
[1] = test system: Arabidopsis thaliana T1 plants; test: Isoxaflutole tolerance of transgenic Arabidopsis thaliana T1 plants (spray, bleached leaf area grade, damage score); assay type: in vivo; details: Table 11; for Classification and statistics of the grade of pesticide damage Grade 0: number of plants at grade 0; for Classification and statistics of the grade of pesticide damage Grade 1: number of plants at grade 1; for Classification and statistics of the grade of pesticide damage Grade 2: number of plants at grade 2; for Classification and statistics of the grade of pesticide damage Grade 3: number of plants at grade 3; for Scores: pesticide damage score;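 as to Scores: Weighted damage index from 0 to 100 where higher means more damage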
From the text: T1 transformants were initially selected from the untransformed seeds using a glufosinate selection scheme. The Arabidopsis thaliana T1 plants (AsHPPD-02) into which the AsHPPD-02 nucleotide sequence was introduced, the Arabidopsis thaliana T1 plants (AsHPPDm-F372A-02) into which the AsHPPDm-F372A-02 nucleotide sequence was introduced, the Arabidopsis thaliana T1 plants (AsHPPDm-F383W-02) into which the AsHPPDm-F383W-02 nucleotide sequence was introduced, the Arabidopsis thaliana T1 plants (AsHPPDm-F372A-F383W-02) into which the AsHPPDm-F372A-F383W-02 nucleotide sequence was introduced, the Arabidopsis thaliana T1 plants (DBN11726N) into which the control recombinant expression vector DBN11726N was introduced, and the wild-type Arabidopsis thaliana plants (CK) (18 days after sowing) were sprayed respectively with topramezone at three concentrations (100 g ai/ha (four-fold field concentration, 4×), 200 g ai/ha (eight-fold field concentration, 8×), and 0 g ai/ha (water, 0×)), isoxaflutole at three concentrations (140 g ai/ha (two-fold field concentration, 2×), 280 g ai/ha (four-fold field concentration, 4×), and 0 g ai/ha (water, 0×)), and mesotrione at three concentrations (210 g ai/ha (two-fold field concentration, […]), 420 g ai/ha (four-fold field concentration, 4×), and 0 g ai/ha (water, 0×)), to determine the tolerance of Arabidopsis thaliana to the herbicides. The degree of damage caused by the herbicide was measured for each plant according to the proportion of bleached leaf area (the proportion of bleached leaf area=bleached leaf area/total leaf area×100%) 7 days after spraying (7 DAT): the case where there is basically no bleached phenotype is defined as grade 0, the case where the proportion of bleached leaf area is less than 50% is defined as grade 1, the case where the proportion of bleached leaf area is more than 50% is defined as grade 2, and the case where the proportion of bleached leaf area is 100% grade is defined as grade 3.
According to the method as described above in point 6 of Example 1, the aforementioned Arabidopsis thaliana T1 plants and wild-type Arabidopsis thaliana plants (CK) (18 days after sowing) were sprayed respectively with topramezone at three concentrations (25 g ai/ha (one-fold field concentration, 1×). 100 g ai/ha (four-fold field concentration, 4×), and 0 g ai/ha (water, 0×)), isoxaflutole at three concentrations (35 g ai/ha (half-fold field concentration, 0.5×). 70 g ai/ha (one-fold field concentration, 1×), and 0 g ai/ha (water, 0×)), and mesotrione at three concentrations (52.5 g ai/ha (half-fold field concentration, 0.5×), 105 g ai/ha (one-fold field concentration, 1×), and 0 g ai/ha (water, 0×)) to detect the tolerance of Arabidopsis thaliana to the herbicides.
According to the method as described above in point 6 of Example 1, the aforementioned Arabidopsis thaliana T1 plants and wild-type Arabidopsis thaliana plants (CK) (18 days after sowing) were sprayed with topramezone at three different concentrations (i.e., 100 g ai/ha (four-fold field concentration, 4×), 200 g ai/ha (eight-fold field concentration, 8×) and 0 g ai/ha (water, 0×)), isoxaflutole at three different concentrations (i.e., 140 g ai/ha (two-fold field concentration, 2×), 280 g ai/ha (four-fold field concentration, 4×) and 0 g ai/ha (water, 0×)), and mesotrione at three different concentrations (i.e., 210 g ai/ha (two-fold field concentration, 2×), 420 g ai/ha (four-fold field concentration, 4×) and 0 g ai/ha (water, 0×)) respectively to detect the herbicide tolerance of Arabidopsis thaliana. […]

[2] = test system: Arabidopsis thaliana T1 plants; test: Mesotrione tolerance of transgenic Arabidopsis thaliana T1 plants (spray, bleached leaf area grade, damage score); assay type: in vivo; set-up: Scores: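 damage score 0-100 computed as Σ(N×S)/(T×M)×100 over grades 0-3 with higher meaning more damage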; details: Table 12; for Classification and statistics of the grade of pesticide damage Grade 0: number of plants at grade 0; for Classification and statistics of the grade of pesticide damage Grade 1: number of plants at grade 1; for Classification and statistics of the grade of pesticide damage Grade 2: number of plants at grade 2; for Classification and statistics of the grade of pesticide damage Grade 3: number of plants at grade 3; for Scores: pesticide damage score
Method in brief: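 T1 transformants selected by glufosinate; 18-day-old plants, with empty-vector and wild-type controls, sprayed with topramezone (25–200 g ai/ha), isoxaflutole (35–280 g ai/ha) or mesotrione (52.5–420 g ai/ha), water as 0×. Bleached leaf area fraction scored at 7 DAT as grades 0–3.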

B1: AsHPPDm-A107-F383W-02: nucleotide sequence encoding Avena sativa HPPD with A107 deletion+F383W; vector DBN11779 (nucleic acid)
DNA: ATGCCACCTACTCCAGCTACAGCTACTGGTGCTGCTGCTGCTGCCGTTACTCCTGAGCACGCTGCCAGGTCATTCCCCAGGGTGGTTCGCGTGAACCCCAGATCTGATAGGTTCCCAGTTCTGAGCTTCCACCATGTTGAGCTGTGGTGCGCTGATGCTGCTTCTGCTGCTGGCAGGTTCTCTTTCGCTCTTGGTGCTCCACTCGCTGCTAGATCTGATCTGTCTACAGGAAATAGCGCTCATGCCTCACTCCTGCTTCGCTCAGGTGCTTTGGCCTTCCTCTTCACCGCTCCATATGCTCCCCCACCTCAGGAGGCTACTGCTGCTGCTACAGCCTCCATTCCAAGCTTCTCAGCTGATGCCGCTAGAACCTTCGCTGCTGCTCATGGACTTGCCGTGAGGTCTGTTGGTGTTCGCGTGGCTGATGCTGCTGAGGCTTTCAGAGTTTCCGTTGCCGGCGGAGCTAGGCCAGCTTTCGCTCCTGCTGATTTGGGACATGGTTTCGGCCTGGCTGAGGTTGAGCTTTACGGTGACGTGGTTCTCCGCTTCGTGTCTTACCCAGATGAGACTGACCTGCCTTTCCTTCCCGGCTTCGAGAGAGTTTCCTCTCCTGGTGCCGTGGATTACGGCCTGACAAGGTTCGACCACGTGGTTGGAAACGTTCCCGAGATGGCTCCAGTGATCGATTACATGAAGGGCTTCCTTGGATTCCATGAGTTCGCCGAGTTCACTGCTGAGGACGTGGGAACCACTGAGTCCGGTTTGAACTCTGTGGTTCTCGCCAACAATTCTGAGGCTGTTTTGCTCCCTCTGAATGAGCCTGTGCATGGAACCAAGAGGAGAAGCCAGATTCAAACTTACCTGGAGTACCACGGTGGCCCTGGAGTTCAGCATATCGCCCTTGCTTCTAATGATGTGTTGCGCACACTCAGAGAGATGCGCGCCAGAACCCCCATGGGAGGTTTCGAGTTCATGGCCCCACCACAGGCTAAGTACTACGAGGGCGTTAGAAGGATTGCTGGAGACGTGTTGAGCGAGGAGCAGATCAAGGAGTGCCAAGAGCTGGGTGTTCTTGTGGATAGGGATGACCAGGGCGTTCTGCTTCAAATTTTCACTAAGCCAGTGGGCGACCGCCCTACATTCTGGCTTGAGATGATTCAAAGAATCGGCTGCATGGAGAAGGATGAGGTTGGACAGGAGTACCAAAAGGGCGGATGCGGTGGCTTCGGAAAGGGTAACTTCAGCGAGTTGTTCAAGTCAATCGAGGACTACGAGAAGAGCCTCGAGGTGAAGCAGTCAGTGGTTGCCCAAAAGTCCTGA
modifications: AsHPPDm-A107-F383W-02 Nucleotide Sequence
notes: vector DBN11779
Resistance evaluation ([1]; isoxaflutole 140 g ai/ha (2×)): Moderately
Classification and statistics of the grade of pesticide damage Grade 0 ([1]; isoxaflutole 140 g ai/ha (2×)): 7
Classification and statistics of the grade of pesticide damage Grade 1 ([1]; isoxaflutole 140 g ai/ha (2×)): 7
Classification and statistics of the grade of pesticide damage Grade 2 ([1]; isoxaflutole 140 g ai/ha (2×)): 1
Classification and statistics of the grade of pesticide damage Grade 3 ([1]; isoxaflutole 140 g ai/ha (2×)): 1
Scores ([1]; isoxaflutole 140 g ai/ha (2×)): 25
Resistance evaluation ([1]; isoxaflutole 280 g ai/ha (4×)): Poorly resistant
Classification and statistics of the grade of pesticide damage Grade 0 ([1]; isoxaflutole 280 g ai/ha (4×)): 4
Classification and statistics of the grade of pesticide damage Grade 1 ([1]; isoxaflutole 280 g ai/ha (4×)): 4
Classification and statistics of the grade of pesticide damage Grade 2 ([1]; isoxaflutole 280 g ai/ha (4×)): 7
Classification and statistics of the grade of pesticide damage Grade 3 ([1]; isoxaflutole 280 g ai/ha (4×)): 1
Scores ([1]; isoxaflutole 280 g ai/ha (4×)): 44
Resistance evaluation ([2]; mesotrione 210 g ai/ha (2×)): Moderately
Classification and statistics of the grade of pesticide damage Grade 0 ([2]; mesotrione 210 g ai/ha (2×)): 4
Classification and statistics of the grade of pesticide damage Grade 1 ([2]; mesotrione 210 g ai/ha (2×)): 9
Classification and statistics of the grade of pesticide damage Grade 2 ([2]; mesotrione 210 g ai/ha (2×)): 3
Classification and statistics of the grade of pesticide damage Grade 3 ([2]; mesotrione 210 g ai/ha (2×)): 0
Scores ([2]; mesotrione 210 g ai/ha (2×)): 31
Resistance evaluation ([2]; mesotrione 420 g ai/ha (4×)): Poorly resistant
Classification and statistics of the grade of pesticide damage Grade 0 ([2]; mesotrione 420 g ai/ha (4×)): 0
Classification and statistics of the grade of pesticide damage Grade 1 ([2]; mesotrione 420 g ai/ha (4×)): 2
Classification and statistics of the grade of pesticide damage Grade 2 ([2]; mesotrione 420 g ai/ha (4×)): 14
Classification and statistics of the grade of pesticide damage Grade 3 ([2]; mesotrione 420 g ai/ha (4×)): 0
Scores ([2]; mesotrione 420 g ai/ha (4×)): 63
